System: K4 kissing-loop RNA reporter
Test: apparent KD of K4 kissing-loop reporter; higher = weaker reporter binding
Details: Eterna round: R107
Experimental: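 RNA-MaP round R107: designed RNA switches with theophylline, tryptophan, arginine or FMN aptamers are transcribed on-chip within common flanks. They are titrated with a labelled K4 kissing-loop RNA reporter in RNA-MaP buffer (100 mM Tris pH 7.5, 80 mM KCl, 4 mM MgCl2), without ligand or with the indicated ligand. Median apparent KD per design.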

[1] = input ligand: theophylline 20 uM
[2] = input ligand: tryptophan 2.4 mM
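Further: bound reporter read as fluorescence of individual clusters on recovered sequencing chips by microscopy, with normalized cluster intensities fitted with a binding model.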

Sequence	apparent KD of K4 kissing-loop reporter (input ligand: FMN 200 uM)	apparent KD of K4 kissing-loop reporter (input ligand: arginine 13.2 mM)	apparent KD of K4 kissing-loop reporter (input ligand: none)	apparent KD of K4 kissing-loop reporter [1]	apparent KD of K4 kissing-loop reporter [2]
AGGGUAAGGCGUUAACAUGACACCUGGGAAGGAGCGCGGUACACCGCAGGUAGGUCGCCCAGUGAUGUUGGGUGUAUGUAUGAGU [KL-XArg-A21]	170 nM	120 nM	139 nM	154 nM	132 nM
AGGUCACCAGGAAGGAGCGCCCUGACAGGUUGCUGCCGUGGGCAGUGAUGUUGCUCAGUCCGGCAGGUAGGUCGCCUGGUGACCU	139 nM	158 nM	154 nM	125 nM	157 nM
AGGUUUUGAUUAGGAUAUGCACUGAGGACGAGAAUAUAGUGAUGUUAUAUAAUAGGAAUUAGUAGAGUAGAAGGGAUUGAGGUUU [SSFMNB.V]	244 nM	153 nM	183 nM	194 nM	161 nM
AGGUUUUGAUUAGGAUAUGCACUGAGGAGGAGAAUAUAGUGAUGUUAUAUAAUAGGAAUUAGUAGAGUAGAAGGGAUUGAGGUUU [SSFMNB.U]	206 nM	223 nM	172 nM	248 nM	142 nM
AGGUUUUGAUUAGGAUAUGCAUUGACGAUGAGAAUAUAGUGAUGUUAUAUACUACGAAUUAGUAAAGUAGAAGGGAUUGAGGUUU [SSFMNB.aA]	353 nM	275 nM	324 nM	368 nM	241 nM
AGUACGCCCAGUGAUACCAGCCCGCCUGGGCAGUGAUGUUGCUCGGGAAAUAAAAUAGAGGGCCCUUGGCAGCACACGGUAGUCC [Cees]	186 nM	144 nM	189 nM	107 nM	174 nM
AGUAGUUGGGCGGCCGCCACUAGAACAGCUUUGCCAAAGGCAGAGCUCUAGAGUGAUGUUCUGGCUAGGACCGGGUCCAACUACA [#01 K4 Tryptophan B Same State]	930 nM	594 nM	932 nM	980 nM	417 nM
AGUCCACUCUAAAGAGUGGACCUAAGGGAUACCAGUGAUGUUGGUCACCCUUGGCAGCCCAGGGCCCGGCGAAUAGCCGGGCCCA [#10 K4 Theophylline A Exclusion]	125 nM	99.8 nM	115 nM	121 nM	125 nM
AGUCCACUCUAAAGAGUGGACCUAAGGGAUACCAGUGAUGUUGGUCACCCUUGGCAGCCCUCUGUCAUCGAUAAAGAUGGCAGCA	132 nM	114 nM	136 nM	149 nM	145 nM
AGUCGCAGUGAUGUUGCGAUUCCGUUGAGGGAGGAUAUUGGUAAUACAAGAAGGCCCGGCUGCGGGUGAUGUUCGCAAUAGGGCC [Exclusion FMN A GF19]	138 nM	108 nM	117 nM	112 nM	105 nM
AGUGAAGUUAGUGAUGUGUGAGUUUGGGAAGGAGCGCCGAGGAAGGCAGGUAGGUCGCCCAGUGAUGUUGGUGUAAAGAUGAGAG [whbob_Ex_Arginine_A_2t122]	308 nM	135 nM	158 nM	254 nM	231 nM
AGUGAUAUAUGAGGAUAUGGGAUAGUUAAUGAGUUAGUUUUAGUGUUGUUUGGUUAGUGAUGUUAUUUAGAAGGCGUGAGUGAUG [tptymullin]	107 nM	74.3 nM	76.7 nM	106 nM	74.4 nM
AGUGAUAUAUGAGGAUAUGGGUUUGUUAAUGAGUUAGUUUUAGUGUUGUUUGGUUAGUGAUGUUAUUUAGAAGGCGUGAGUGAUG [vkkjkjmullin]	103 nM	79.8 nM	79.9 nM	140 nM	72.8 nM
AGUGAUGUAUGGCGGUUGGUCACUUAGGAUCAGGAUAUAUAAACAAAUAGAAGGGAUGGCGGAGUGAUGUUCCGCCGGCCGCCAU [FMN A Exl V2]	173 nM	130 nM	177 nM	191 nM	170 nM
AGUGAUGUGGGAAGGAGCGCUACAAGACUUCAGUGAUGUUGAAGUGAUGUUUUAGUGUUGUAGCAGGUAGGUCGCCUAGAUGUUA [KL-XARG-B10]	71.2 nM	31.9 nM	42.5 nM	45.7 nM	43.7 nM
AGUGAUGUGGGAAGGAGCGCUACAUGACUUCAGUGAUGUUGAAGUGAUGAUUUAGUGAUGUAGCAGGUAGGUCGCCUAGAUGUUA [KL-XARG-B8]	98.3 nM	41.2 nM	77.2 nM	77.5 nM	62.5 nM
AGUGAUGUUGAGUGAUGUUAGUGAAGUGAUCGAGGACCGGUACGGCCGCCACUCGAGUGAUGAGUGAGUGAUGUUUGUUUAGUGA [hhbmullin]	168 nM	74.4 nM	113 nM	120 nM	78.2 nM
AGUGAUGUUGAGUUAUCUUAGUGAAGUGAUCGAGGACCGGUACGGCCGCCACUCGAGUGAUGAGUGAGUGAUGUUUGUUUAGUGA [zzymullin]	546 nM	431 nM	549 nM	593 nM	311 nM
AGUGAUGUUUUUUUUAAGAGUGAUGUUUUUCGAGGACCGGUACGGCCGCCACUCGAGUGAGGAGUGCGGUGGUGAGAUGUUGAGU [oomullin]	549 nM	466 nM	677 nM	589 nM	519 nM
AGUGAUGUUUUUUUUAAGAGUGAUGUUUUUCGAGGACCGGUACGGCCGCCACUCGAGUGAUGAGUGAGGUGUGGUGAUGUUUAGU [#09 K4 Tryptophan A Exclusion]	287 nM	279 nM	351 nM	316 nM	205 nM
AGUGAUGUUUUUUUUAAGAGUGAUGUUUUUCGAGGACCGGUACGGCCGCCACUCGAGUGAUGAGUGAGGUGUUGUGAUGUUUAGU [cxmullin]	436 nM	314 nM	458 nM	504 nM	248 nM
AGUGCACUGUCAGGAUAUAUACAGUGAUGUUGUGUAUGUCAGCAAGUCAAAGACUUGCUAUUUUGUAUAGAAGGGACUGUGUACA [whbob_Ex_FMNB__2th222]	574 nM	258 nM	294 nM	276 nM	286 nM

Source: the supplement of paper PMC9170038
